The values that follow come from doi:10.1101/2020.06.02.095570 (bioRxiv, 2020).

B1: sNgBRΔ167*-175* (soluble Nogo-B receptor, residues 73*-293*, loop 167-175 removed) (domain or fragment)
chain: RGGSCLAAAHHRMRWRADGRSLEKLPVHMGLVITEVEQEPSFSDIASLVVWCMAVGISYISVYDHQGIFKRNNSRLMDEILKQQQELLGLDCSKDKDDQVLNCHLAVKVLSPEDGKADIVRAAQDFCQLVAQKQKRPTDLDVDTLASLLSSNGCPDPDLVLKFGPVDSTLGFLPWHIRLTEIVSLPSHLNISYEDFFSALRQYAACEQRLGK
B2: dehydrodolichyl diphosphate synthase (DHDDS), full-length human (enzyme)
chain: MSWIKEGELSLWERFCANIIKAGPMPKHIAFIMDGNRRYAKKCQVERQEGHSQGFNKLAETLRWCLNLGILEVTVYAFSIENFKRSKSEVDGLMDLARQKFSRLMEEKEKLQKHGVCIRVLGDLHLLPLDLQELIAQAVQATKNYNKCFLNVCFAYTSRHEISNAVREMAWGVEQGLLDPSDISESLLDKCLYTNRSPHPDILIRTSGEVRLSDFLLWQTSHSCLVFQPVLWPEYTFWNLFEAILQFQMNHSVLQKARDMYAEERKRQQLERDQATVTEQLLREGLQASGDAQLRRTRLHKLSARREERVQGFLQALELKRADWLARLGTASA

Data set [1] deals with B2. The experiment in a line: crystal structure.
Data set [2] concerns the molecule itself. The experiment in a line: cross-linking.

As for B1, the binding result in data set [1] is listed as “binds”.

Consider B2, for which the binding result in data set [2] is “binds”.
